Reference: the supplement of paper PMC10567573

B1: TOR1AIP2 (parent)
chain: HHVADAYTSSQKVSPIQIDGAGRT

Variants of: B1
Test: protein stability index of a GFP-peptide fusion (GPS, HEK-293T) (PSI 1-6); higher = more stable
Settings: c terminus: a fixed tail appended
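Note: lentivirally expressed fusions sorted by FACS into six bins by GFP to DsRed ratio, PSI derived from sequencing read proportions per bin multiplied by bin number.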

Variant	protein stability index
HHVADAYTSSQKVSDIQIDGAGRT [P15D]	3.81
HHVADAYTSSQKVSEIQIDGAGRT [P15E]	3.82
HHVADAYTSSQKVSFIQIDGAGRT [P15F]	2.82
HHVADAYTSSQKVSGIQIDGAGRT [P15G]	4.04
HHVADAYTSSQKVSHIQIDGAGRT [P15H]	3.08
HHVADAYTSSQKVSIIQIDGAGRT [P15I]	2.77
HHVADAYTSSQKVSKIQIDGAGRT [P15K]	3.33
HHVADAYTSSQKVSLIQIDGAGRT [P15L]	3.45
HHVADAYTSSQKVSMIQIDGAGRT [P15M]	3.25
HHVADAYTSSQKVSNIQIDGAGRT [P15N]	3.47
HHVADAYTSSQKVSQIQIDGAGRT [P15Q]	3.43
HHVADAYTSSQKVSRIQIDGAGRT [P15R]	3.26
HHVADAYTSSQKVSSIQIDGAGRT [P15S]	3.41
HHVADAYTSSQKVSTIQIDGAGRT [P15T]	3.28
HHVADAYTSSQKVSVIQIDGAGRT [P15V]	3.14
HHVADAYTSSQKVSWIQIDGAGRT [P15W]	2.63
HHVADAYTSSQKVSYIQIDGAGRT [P15Y]	2.55
HHVADAYTSSQKVSPAQIDGAGRT [I16A]	3.72
HHVADAYTSSQKVSPCQIDGAGRT [I16C]	3.31
HHVADAYTSSQKVSPDQIDGAGRT [I16D]	4.46
HHVADAYTSSQKVSPEQIDGAGRT [I16E]	4.51
HHVADAYTSSQKVSPFQIDGAGRT [I16F]	3.49
HHVADAYTSSQKVSPGQIDGAGRT [I16G]	3.78
HHVADAYTSSQKVSPHQIDGAGRT [I16H]	3.45

Variant	protein stability index
HHVADAYTSSQKVSPKQIDGAGRT [I16K]	4.04
HHVADAYTSSQKVSPLQIDGAGRT [I16L]	3.6
HHVADAYTSSQKVSPMQIDGAGRT [I16M]	3.38
HHVADAYTSSQKVSPNQIDGAGRT [I16N]	3.88
HHVADAYTSSQKVSPPQIDGAGRT [I16P]	4.09
HHVADAYTSSQKVSPQQIDGAGRT [I16Q]	3.69
HHVADAYTSSQKVSPRQIDGAGRT [I16R]	3.94
HHVADAYTSSQKVSPSQIDGAGRT [I16S]	3.78
HHVADAYTSSQKVSPTQIDGAGRT [I16T]	4.13
HHVADAYTSSQKVSPVQIDGAGRT [I16V]	4.05
HHVADAYTSSQKVSPWQIDGAGRT [I16W]	2.59
HHVADAYTSSQKVSPYQIDGAGRT [I16Y]	3.69
HHVADAYTSSQKVSPIAIDGAGRT [Q17A]	3.55
HHVADAYTSSQKVSPICIDGAGRT [Q17C]	3.26
HHVADAYTSSQKVSPIDIDGAGRT [Q17D]	3.67
HHVADAYTSSQKVSPIEIDGAGRT [Q17E]	3.65
HHVADAYTSSQKVSPIFIDGAGRT [Q17F]	3.05
HHVADAYTSSQKVSPIGIDGAGRT [Q17G]	3.29
HHVADAYTSSQKVSPIHIDGAGRT [Q17H]	3.17
HHVADAYTSSQKVSPIIIDGAGRT [Q17I]	3.05
HHVADAYTSSQKVSPIKIDGAGRT [Q17K]	3.63
HHVADAYTSSQKVSPILIDGAGRT [Q17L]	3.57
HHVADAYTSSQKVSPIMIDGAGRT [Q17M]	2.99
HHVADAYTSSQKVSPINIDGAGRT [Q17N]	3.64

Variant	protein stability index
HHVADAYTSSQKVSPIPIDGAGRT [Q17P]	3.93
HHVADAYTSSQKVSPIRIDGAGRT [Q17R]	3.72
HHVADAYTSSQKVSPISIDGAGRT [Q17S]	3.69
HHVADAYTSSQKVSPITIDGAGRT [Q17T]	3.41
HHVADAYTSSQKVSPIVIDGAGRT [Q17V]	3.49
HHVADAYTSSQKVSPIWIDGAGRT [Q17W]	2.31
HHVADAYTSSQKVSPIYIDGAGRT [Q17Y]	2.66
HHVADAYTSSQKVSPIQADGAGRT [I18A]	4.03
HHVADAYTSSQKVSPIQCDGAGRT [I18C]	3.61
HHVADAYTSSQKVSPIQDDGAGRT [I18D]	4.28
HHVADAYTSSQKVSPIQEDGAGRT [I18E]	3.73
HHVADAYTSSQKVSPIQFDGAGRT [I18F]	2.9
HHVADAYTSSQKVSPIQGDGAGRT [I18G]	3.47
HHVADAYTSSQKVSPIQHDGAGRT [I18H]	3.85
HHVADAYTSSQKVSPIQKDGAGRT [I18K]	3.98
HHVADAYTSSQKVSPIQLDGAGRT [I18L]	3.57
HHVADAYTSSQKVSPIQMDGAGRT [I18M]	3.84
HHVADAYTSSQKVSPIQNDGAGRT [I18N]	3.96
HHVADAYTSSQKVSPIQPDGAGRT [I18P]	4.15
HHVADAYTSSQKVSPIQQDGAGRT [I18Q]	3.75
HHVADAYTSSQKVSPIQRDGAGRT [I18R]	3.58
HHVADAYTSSQKVSPIQSDGAGRT [I18S]	3.72
HHVADAYTSSQKVSPIQTDGAGRT [I18T]	3.87
HHVADAYTSSQKVSPIQVDGAGRT [I18V]	3.76

Variant	protein stability index
HHVADAYTSSQKVSPIQWDGAGRT [I18W]	3.26
HHVADAYTSSQKVSPIQYDGAGRT [I18Y]	2.97
HHVADAYTSSQKVSPIQIAGAGRT [D19A]	3.01
HHVADAYTSSQKVSPIQICGAGRT [D19C]	3.1
HHVADAYTSSQKVSPIQIEGAGRT [D19E]	3.43
HHVADAYTSSQKVSPIQIFGAGRT [D19F]	2.77
HHVADAYTSSQKVSPIQIGGAGRT [D19G]	3.4
HHVADAYTSSQKVSPIQIHGAGRT [D19H]	2.87
HHVADAYTSSQKVSPIQIIGAGRT [D19I]	2.54
HHVADAYTSSQKVSPIQIKGAGRT [D19K]	3.14
HHVADAYTSSQKVSPIQILGAGRT [D19L]	2.36
HHVADAYTSSQKVSPIQIMGAGRT [D19M]	2.7
HHVADAYTSSQKVSPIQINGAGRT [D19N]	3.34
HHVADAYTSSQKVSPIQIPGAGRT [D19P]	3.06
HHVADAYTSSQKVSPIQIQGAGRT [D19Q]	3.75
HHVADAYTSSQKVSPIQIRGAGRT [D19R]	2.93
HHVADAYTSSQKVSPIQISGAGRT [D19S]	3.2
HHVADAYTSSQKVSPIQITGAGRT [D19T]	3.07
HHVADAYTSSQKVSPIQIVGAGRT [D19V]	3.28
HHVADAYTSSQKVSPIQIWGAGRT [D19W]	1.94
HHVADAYTSSQKVSPIQIYGAGRT [D19Y]	2.47
HHVADAYTSSQKVSPIQIDAAGRT [G20A]	3.53
